Reference: patent US20220259281A1

Target: human CD40 (human) (UniProt P25942)
Experiment: flow cytometry on PATHHUNTER U2OS-NIK/NFkB reporter cells; isotype control; beside it Unstained 56.7 and hCD40-APC 16805

human CD40 (human), sequence (P25942 21-277): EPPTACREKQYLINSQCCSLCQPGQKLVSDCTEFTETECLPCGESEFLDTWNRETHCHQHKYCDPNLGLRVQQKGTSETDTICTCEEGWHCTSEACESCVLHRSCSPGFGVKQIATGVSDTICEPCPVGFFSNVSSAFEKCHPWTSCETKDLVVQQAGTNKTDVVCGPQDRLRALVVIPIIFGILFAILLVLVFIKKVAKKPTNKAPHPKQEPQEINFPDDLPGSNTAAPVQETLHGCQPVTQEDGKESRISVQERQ

- MFI-APC: 2160
Substance: APC Isotype (antibody)
